Drawing on US20200339681A1, this text covers Alexa488 fluorescence intensity in HeLa cells (confocal microscopy, 1 µM, 6 h) for one molecule.

This assay deals with heparan sulfate proteoglycan (HSPG) on HeLa cells. Briefly: cell-based or functional assay.

B1: CT-59 (antibody, part only; not given: TMab4 heavy chain variable domain, V domains shown, part only)
VL: DIQMTQSPSSLSASVGDRVTITCKSSQSLLNSRDGKNYLAWYQQKPGKAPKLLIYWASTRESGVPSRFSGSGSGTDFTLTISSLQPEDFATYFCQQYWYWMYTFGQGTKVEIKR
The molecule B1 had an Alexa488 fluorescence intensity in HeLa cells (confocal microscopy, 1 µM, 6 h) of 20%.
